Measured values taken from patent US20030013150.

Molecular target: plasminogen
Sequence (P00747 20-810): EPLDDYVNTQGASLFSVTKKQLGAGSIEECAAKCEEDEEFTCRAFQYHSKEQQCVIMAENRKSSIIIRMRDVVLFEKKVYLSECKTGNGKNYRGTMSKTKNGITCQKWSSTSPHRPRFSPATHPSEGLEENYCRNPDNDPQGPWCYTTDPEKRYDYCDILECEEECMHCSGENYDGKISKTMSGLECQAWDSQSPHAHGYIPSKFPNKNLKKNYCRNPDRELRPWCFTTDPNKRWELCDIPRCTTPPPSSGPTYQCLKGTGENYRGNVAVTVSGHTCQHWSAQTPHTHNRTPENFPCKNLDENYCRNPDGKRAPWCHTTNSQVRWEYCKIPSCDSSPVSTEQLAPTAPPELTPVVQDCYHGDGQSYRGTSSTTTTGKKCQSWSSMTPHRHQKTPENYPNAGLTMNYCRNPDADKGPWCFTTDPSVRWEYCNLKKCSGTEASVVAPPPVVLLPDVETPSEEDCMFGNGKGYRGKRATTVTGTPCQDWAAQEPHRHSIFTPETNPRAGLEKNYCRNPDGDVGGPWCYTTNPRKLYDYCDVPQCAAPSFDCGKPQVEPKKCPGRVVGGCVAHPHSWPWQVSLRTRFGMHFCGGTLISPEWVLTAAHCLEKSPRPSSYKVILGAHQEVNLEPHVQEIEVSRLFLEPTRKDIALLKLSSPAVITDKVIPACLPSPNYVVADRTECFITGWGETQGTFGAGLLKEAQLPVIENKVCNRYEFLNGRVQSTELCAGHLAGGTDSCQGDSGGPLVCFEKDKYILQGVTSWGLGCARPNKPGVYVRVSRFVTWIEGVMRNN

B1: standard melanoma tPA 86/670 (protein)
chain: SYQVICRDEKTQMIYQQHQSWLRPVLRSNRVEYCWCNSGRAQCHSVPVKSCSEPRCFNGGTCQQALYFSDFVCQCPEGFAGKCCEIDTRATCYEDQGISYRGTWSTAESGAECTNWNSSALAQKPYSGRRPDAIRLGLGNHNYCRNPDRDSKPWCYVFKAGKYSSEFCSTPACSEGNSDCYFGNGSAYRGTHSLTESGASCLPWNSMILIGKVYTAQNPSAQALGLGKHNYCRNPDGDAKPWCHVLKNRRLTWEYCDVPSCSTCGLRQYSQPQFRIKGGLFADIASHPWQAAIFAKHRRSPGERFLCGGILISSCWILSAAHCFQERFPPHHLTVILGRTYRVVPGEEEQKFEVEKYIVHKEFDDDTYDNDIALLQLKSDSSRCAQESSVVRTVCLPPADLQLPDWTECELSGYGKHEALSPFYSERLKEAHVRLYPSSRCTSQHLLNRTVTDNMLCAGDTRSGGPQANLHDACQGDSGGPLVCLNDGRMTLVGIISWGLGCGQKDVPGVYTKVTNYLDWIRDNMRP
copolymerized plasminogen polyacrylamide gel electrophoresis (clearing zones): The positive control lane of standard melanoma tPA also demonstrated enzymatic activity at 66 and 72 kDa positions

B2: recombinant-K2S (r-K2S) expressed in non-gpIII fusion form in E. coli XM[K2S] (protein)
chain: SEGNSDCYFGNGSAYRGTHSLTESGASCLPWNSMILIGKVYTAQNPSAQALGLGKHNYCRNPDGDAKPWCHVLKNRRLTWEYCDVPSCSTCGLRQYSQPQFRIKGGLFADIASHPWQAAIFAKHRRSPGERFLCGGILISSCWILSAAHCFQERFPPHHLTVILGRTYRVVPGEEEQKFEVEKYIVHKEFDDDTYDNDIALLQLKSDSSRCAQESSVVRTVCLPPADLQLPDWTECELSGYGKHEALSPFYSERLKEAHVRLYPSSRCTSQHLLNRTVTDNMLCAGDTRSGGPQANLHDACQGDSGGPLVCLNDGRMTLVGIISWGLGCGQKDVPGVYTKVTNYLDWIRDNMRP
copolymerized plasminogen polyacrylamide gel electrophoresis (clearing zones): Transparent areas of serine protease digested plasminogen were observed only in the ammonium sulfate precipitated culture supernatants of E. coli XM[K2S] at 34 and 37 kDa postions | fibrinogen-dependent enzymatic activity (amidolytic assay, plasminogen and S-2251): The culture supernatant r-K2S gave the fibrinogen-dependent enzymatic activity of 7 IU/ml | fibrinogen-dependent enzymatic activity of the periplasmic r-K2S preparation (amidolytic assay, plasminogen and S-2251): notably low enzymatic activity, which was below the sensitivity of the test (0.25 IU/ml)
